In patent US20210198640A1 (DENALI THERAPEUTICS, published 2021):

Columns and labels:
[1] = molecular target: T1, human transferrin receptor protein 1 (TfR) (human, UniProt P02786 89-760, limits assumed); assay: ELISA, TfR coated on plate, Fc-Fab fusion
T1 construct: also called human TfR; hTfR

[2] = molecular target: T1, human transferrin receptor protein 1 …; assay: selection from soft randomization libraries
CH3C.35.N153.bi = assay: SPR, TfR ECD captured, clone injected, steady state

| Binder | binding result [2] | further results |
| --- | --- | --- |
| Clone CH3C.3.2-1 (designed binder, modified Fc polypeptide) APELLGGPSVFLFPPKPKDTLMISRTPEVTCVVVDVSHEDPEVKFNWYVDGVEVHNAKTKPREEQYNSTYRVVSVLTVLHQDWLNGKEYKCKVSNKALPAPIEKTISKAKGQPREPQVYTLPPSRDELTKNQVSLTCLVKGFYPSDIAVEWESLGHVWVNFKTTPPVLDSDGSFFLYSKLTVPKSTWQQGWVFSCSVMHEALHNHYTQKSLSLSPGK |  | binding result [1]: binds |
| Clone CH3C.21 (designed binder, modified Fc polypeptide) APELLGGPSVFLFPPKPKDTLMISRTPEVTCVVVDVSHEDPEVKFNWYVDGVEVHNAKTKPREEQYNSTYRVVSVLTVLHQDWLNGKEYKCKVSNKALPAPIEKTISKAKGQPREPQVYTLPPSRDELTKNQVSLTCLVKGFYPSDIAVEWESLGLVWVGYKTTPPVLDSDGSFFLYSKLTVPKSTWQQGWVFSCSVMHEALHNHYTQKSLSLSPGK | binds |  |
| Clone CH3C.25 (designed binder, modified Fc polypeptide) APELLGGPSVFLFPPKPKDTLMISRTPEVTCVVVDVSHEDPEVKFNWYVDGVEVHNAKTKPREEQYNSTYRVVSVLTVLHQDWLNGKEYKCKVSNKALPAPIEKTISKAKGQPREPQVYTLPPSRDELTKNQVSLTCLVKGFYPSDIAVEWESMGHVWVGYKTTPPVLDSDGSFFLYSKLTVDKSTWQQGWVFSCSVMHEALHNHYTQKSLSLSPGK | binds |  |
| Clone CH3C.34 (designed binder, modified Fc polypeptide) APELLGGPSVFLFPPKPKDTLMISRTPEVTCVVVDVSHEDPEVKFNWYVDGVEVHNAKTKPREEQYNSTYRVVSVLTVLHQDWLNGKEYKCKVSNKALPAPIEKTISKAKGQPREPQVYTLPPSRDELTKNQVSLTCLVKGFYPSDIAVEWESLGLVWVFSKTTPPVLDSDGSFFLYSKLTVPKSTWQQGWVFSCSVMHEALHNHYTQKSLSLSPGK | binds |  |
| recombinant cyno TfR ectodomain (ECD), biotinylated (receptor) CKGVEPKTECERLAGTESPAREEPEEDFPAAPRLYWDDLKRKLSEKLDTTDFTSTIKLLNENLYVPREAGSQKDENLALYIENQFREFKLSKVWRDQHFVKIQVKDSAQNSVIIVDKNGGLVYLVENPGGYVAYSKAATVTGKLVHANFGTKKDFEDLDSPVNGSIVIVRAGKITFAEKVANAESLNAIGVLIYMDQTKFPIVKADLSFFGHAHLGTGDPYTPGFPSFNHTQFPPSQSSGLPNIPVQTISRAAAEKLFGNMEGDCPSDWKTDSTCKMVTSENKSVKLTVSNVLKETKILNIFGVIKGFVEPDHYVVVGAQRDAWGPGAAKSSVGTALLLKLAQMFSDMVLKDGFQPSRSIIFASWSAGDFGSVGATEWLEGYLSSLHLKAFTYINLDKAVLGTSNFKVSASPLLYTLIEKTMQDVKHPVTGRSLYQDSNWASKVEKLTLDNAAFPFLAYSGIPAVSFCFCEDTDYPYLGTTMDTYKELVERIPELNKVARAAAEVAGQFVIKLTHDTELNLDYERYNSQLLLFLRDLNQYRADVKEMGLSLQWLYSARGDFFRATSRLTTDFRNAEKRDKFVMKKLNDRVMRVEYYFLSPYVSPKESPFRHVFWGSGSHTLSALLESLKLRRQNNSAFNETLFRNQLALATWTIQGAANALSGDVWDIDNEF |  | Kd (CH3C.35.N153.bi): 3.3 µM |
